Article PMC9468151, “Identification of a binding site on soluble RANKL that can be targeted to inhibit soluble RANK-RANKL interactions and treat osteoporosis” (Nature Communications, 2022)
Values joined by “and” are separate entries in the source; they are usually repeats but may differ in a detail not shown here. Identical values can stand only once.

System: BMM cells
Experiment: Osteoclastogenic assay of WT, single-point mutated sRANKL and L-RANKL
Type: cell-based, mouse
Conditions: for number of osteoclasts (fig. 1f): BMMs, M-CSF 10 ng/mL; for osteoclast formation (fig. S4a): three replicates
Experimental: Fig. 1 Evidence for selective sRANKL inhibition binding site identification. a Proposed small molecule binding site that can be used to distinguish sRANKL from mRANKL. b he probabilities that distances of residue pairs greater than 1.8 Å in sRANKL (red) and mRANKL (blue). The data are calculated based on conformation trajectories from 100 ns MD simulations on sRANKL and mRANKL. c SDRP frequency in sRANKL and mRANKL. d, e The distance of Y236-D303 and K182-R224 in sRANKL and mRANKL after MD simulation. f, g and h Osteoclastogenesis function of single-point mutated rat sRANKL and WT sRANKL. Representative TRAP staining images from one well each, with triplicate repeats wells of BMM cells isolated from C57BL/6 mice cultured with colony-stimulating factor 1 (M-CSF (10 ng/mL) and either varying WT sRANKL or mutated sRANKL (25–200 ng/mL). The number of osteoclasts counted in the osteoclastogenesis assay with mutated sRANKL. Data were presented as group mean ± s.d., n = 3 biological replicates.
Mouse osteoclasts were cultured according to the previously reported protocols. BMMs were plated in 96-well plates at a density of 6 × 10^3 cells/well with complete medium containing 10 ng/mL M-CSF. The following day, cells were then stimulated with 100 ng/mL sRANKL in the presence or absence of compounds with different concentrations every 2 days until osteoclasts formed. In order to calculate IC50, we set 9 concentrations for each compound and untreated and non-sRANKL unstimulating group as controls, each with triplicated repeated wells. After 5 days, cells were fixed with 4% paraformaldehyde and then applied TRAP-staining to identify osteoclasts by using the TRAP-staining kit. Osteoclasts number (OC No.) in each well was counted and the percentage of inhibition ratio was calculated as follows:1 OCinhibitoryratio%=100−OCNo.treated−OCNo.unstimulating/OCNo.untreated−OCNo.unstimulating×100%
GST-sRANKL was expressed and purified following a previously reported protocol. Rat sRANKL (aa160–318) cDNA was cloned into the bacterial expression vectors pGEX-3X and pGEX-2T with purification GST tag and resultant plasmid named p3rRANKL1. Label-free sRANKL protein in this study was obtained by removing His6-sumo tag from fusion protein His6-sumo-sRANKL. The DNA sequence encoding sRNAKL was inserted downstream the His6-sumo tag of a modified pET20b (+) plasmid. Single point mutations of sRANKL (K182A, R192A, W194A, R224A, H226A, E227A, Q238A, Y242A, H254A, N255A, E270A, K283A, D301A, D303A, or D305A) were constructed by PCR amplification using primer pairs to introduce the designed mutations to pET20b-His6-sumo-sRANKL recombinant plasmid. L-RANKL (binary-RANKL) plasmid was constructed as follow: the consecutive DNA sequence sequentially encoding His6-sumo tag and two sRANKL monomers was cloned into pET20b by PCR amplification using primer pairs to introduce the following restriction enzyme sites to the coding sequences: Nde I-His6-sumo-sRANKL-Bam HI and Bam HI-sRNAKL-Xho I. Each PCR product was double digested with the appropriate restriction enzymes (Thermo) and ligated to the pET20b vector between the Nde I and Xho I sites. Gly-Ser-Gly-Ser was designed to link the two monomers. After confirmed by sequence analysis, the recombinant plasmids were transformed into Escherichia coli BL21 (DE3) cells. The transformed cells were grown in LB media till OD600 about 0.6, then 0.15 mM IPTG was added to induce protein overexpression for 16 h at 20 °C.

B1: H226A: single-point mutated rat sRANKL (protein, UniProt Q9ESE2 69-318, looked up, variant H226A)
extracellular domain: LYFRAQMDPNRISEDSTRCFYRILRLRENTGLQDSTLESEDTEALPDSCRRMKQAFQGAVQRELQHIVGPQRFSGVPAMMEGSWLDVARRGKPEAQPFAHLTINAADIPSGSHKVSLSSWYHDRGWAKISNMTLSNGKLRVNQDGFYYLYANICFRHAETSGSVPADYLQLMVYVVKTSIKIPSSHNLMKGGSTKNWSGNSEFHFYSINVGGFFKLRAGEEISVQVSNPSLLDPDQDATYFGAFKVQDID
modifications: extracellular domain
notes: single-point mutated rat sRANKL
Q: For B1, which “number of osteoclasts (fig. 1f)” value (sRANKL protein 25 ng/mL) is on record?
A: Its value is 0.

Q: What about the “number of osteoclasts (fig. 1f)” value (sRANKL protein 50 ng/mL) of the same molecule?
A: The value was 0.

Q: And the “number of osteoclasts (fig. 1f)” value (sRANKL protein 100 ng/mL)?
A: Its value is 0.

Q: What about the “number of osteoclasts (fig. 1f)” value (sRANKL protein 200 ng/mL) of the same molecule?
A: The value was 0.

B2: Q238A: single-point mutated rat sRANKL (protein, UniProt Q9ESE2 69-318, looked up, variant Q238A)
extracellular domain: LYFRAQMDPNRISEDSTRCFYRILRLRENTGLQDSTLESEDTEALPDSCRRMKQAFQGAVQRELQHIVGPQRFSGVPAMMEGSWLDVARRGKPEAQPFAHLTINAADIPSGSHKVSLSSWYHDRGWAKISNMTLSNGKLRVNQDGFYYLYANICFRHHETSGSVPADYLALMVYVVKTSIKIPSSHNLMKGGSTKNWSGNSEFHFYSINVGGFFKLRAGEEISVQVSNPSLLDPDQDATYFGAFKVQDID
modifications: extracellular domain
notes: as for B1
Q: How did the “number of osteoclasts (fig. 1f)” value (sRANKL protein 25 ng/mL) turn out when B2 was run?
A: Its value is 218 and 174 and 207.

Q: What about the “number of osteoclasts (fig. 1f)” value (sRANKL protein 50 ng/mL) of the same molecule?
A: Its value is 153 and 140 and 132.

Q: What about the “number of osteoclasts (fig. 1f)” value (sRANKL protein 100 ng/mL) of the same molecule?
A: The value was 166 and 142 and 153.

Q: And the “number of osteoclasts (fig. 1f)” value (sRANKL protein 200 ng/mL)?
A: Its value is 155 and 163 and 151.

B3: E270A: single-point mutated rat sRANKL (protein)
chain: KPEAQPFAHLTINAADIPSGSHKVSLSSWYHDRGWAKISNMTLSNGKLRVNQDGFYYLYANICFRHHETSGSVPADYLQLMVYVVKTSIKIPSSHNLMKGGSTKNWSGNSAFHFYSINVGGFFKLRAGEEISVQVSNPSLLDPDQDATYFGAFKVQDID
modifications: left off: His6, N-terminal, cleaved | SUMO, N-terminal, cleaved
notes: as for B1
Q: Which results are given for B3?
A: number of osteoclasts (fig. 1f) (sRANKL protein 25 ng/mL): 0; number of osteoclasts (fig. 1f) (sRANKL protein 50 ng/mL): 0; number of osteoclasts (fig. 1f) (sRANKL protein 100 ng/mL): 0; number of osteoclasts (fig. 1f) (sRANKL protein 200 ng/mL): 0

B4: E227A: single-point mutated rat sRANKL (protein)
chain: KPEAQPFAHLTINAADIPSGSHKVSLSSWYHDRGWAKISNMTLSNGKLRVNQDGFYYLYANICFRHHATSGSVPADYLQLMVYVVKTSIKIPSSHNLMKGGSTKNWSGNSEFHFYSINVGGFFKLRAGEEISVQVSNPSLLDPDQDATYFGAFKVQDID
modifications: left off: His6, N-terminal, cleaved | SUMO, N-terminal, cleaved
notes: as for B1
Q: B4 was tested. Which “number of osteoclasts (fig. 1f)” value (sRANKL protein 25 ng/mL) did it give?
A: The value was 0.

Q: And the “number of osteoclasts (fig. 1f)” value (sRANKL protein 50 ng/mL)?
A: The value was 0.

Q: And the “number of osteoclasts (fig. 1f)” value (sRANKL protein 100 ng/mL)?
A: Its value is 0.

Q: What about the “number of osteoclasts (fig. 1f)” value (sRANKL protein 200 ng/mL) of the same molecule?
A: Its value is 0.

B5: K182A: single-point mutated rat sRANKL (protein)
chain: KPEAQPFAHLTINAADIPSGSHAVSLSSWYHDRGWAKISNMTLSNGKLRVNQDGFYYLYANICFRHHETSGSVPADYLQLMVYVVKTSIKIPSSHNLMKGGSTKNWSGNSEFHFYSINVGGFFKLRAGEEISVQVSNPSLLDPDQDATYFGAFKVQDID
modifications: left off: His6, N-terminal, cleaved | SUMO, N-terminal, cleaved
notes: as for B1
Q: What does the source list for B5?
A: number of osteoclasts (fig. 1f) (sRANKL protein 25 ng/mL): 0; number of osteoclasts (fig. 1f) (sRANKL protein 50 ng/mL): 0; number of osteoclasts (fig. 1f) (sRANKL protein 100 ng/mL): 0; number of osteoclasts (fig. 1f) (sRANKL protein 200 ng/mL): 0

B6: R224A: single-point mutated rat sRANKL (protein)
chain: KPEAQPFAHLTINAADIPSGSHKVSLSSWYHDRGWAKISNMTLSNGKLRVNQDGFYYLYANICFAHHETSGSVPADYLQLMVYVVKTSIKIPSSHNLMKGGSTKNWSGNSEFHFYSINVGGFFKLRAGEEISVQVSNPSLLDPDQDATYFGAFKVQDID
modifications: left off: His6, N-terminal, cleaved | SUMO, N-terminal, cleaved
notes: as for B1
Q: For B6, which “number of osteoclasts (fig. 1f)” value (sRANKL protein 25 ng/mL) is on record?
A: Its value is 0.

Q: And the “number of osteoclasts (fig. 1f)” value (sRANKL protein 50 ng/mL)?
A: Its value is 0.

Q: What about the “number of osteoclasts (fig. 1f)” value (sRANKL protein 100 ng/mL) of the same molecule?
A: Its value is 0.

Q: And the “number of osteoclasts (fig. 1f)” value (sRANKL protein 200 ng/mL)?
A: The value was 0.

B7: WT: wild type recombinant rat sRANKL (protein)
chain: KPEAQPFAHLTINAADIPSGSHKVSLSSWYHDRGWAKISNMTLSNGKLRVNQDGFYYLYANICFRHHETSGSVPADYLQLMVYVVKTSIKIPSSHNLMKGGSTKNWSGNSEFHFYSINVGGFFKLRAGEEISVQVSNPSLLDPDQDATYFGAFKVQDID
modifications: left off: His6, N-terminal, cleaved | SUMO, N-terminal, cleaved
notes: wild type recombinant rat sRANKL
Q: With B7 as the molecule, how does the “osteoclast formation (fig. S4a)” value (25 ng/mL) read?
A: Its value is 53 and 61 and 57.

Q: And the “osteoclast formation (fig. S4a)” value (50 ng/mL)?
A: Its value is 118 and 103 and 116.

Q: And the “osteoclast formation (fig. S4a)” value (100 ng/mL)?
A: Its value is 201 and 205.

Q: What about the “osteoclast formation (fig. S4a)” value (200 ng/mL) of the same molecule?
A: The value was 201 and 205.

Q: What about the “number of osteoclasts (fig. 1f)” value (sRANKL protein 25 ng/mL) of the same molecule?
A: Its value is 53 and 61 and 57.

Q: And the “number of osteoclasts (fig. 1f)” value (sRANKL protein 50 ng/mL)?
A: The value was 118 and 103 and 116.

Q: What about the “number of osteoclasts (fig. 1f)” value (sRANKL protein 100 ng/mL) of the same molecule?
A: The value was 198 and 201 and 205.

Q: And the “number of osteoclasts (fig. 1f)” value (sRANKL protein 200 ng/mL)?
A: The value was 198 and 201 and 205.

Q: What about the “osteoclastogenesis activity, osteoclast number (fig. S3a source data)” value (L-RANKL vs WT sRANKL, listed as WT-RANKL) of the same molecule?
A: Its value is 341 and 355 and 358.

B8: D301A: single-point mutated rat sRANKL (protein)
chain: KPEAQPFAHLTINAADIPSGSHKVSLSSWYHDRGWAKISNMTLSNGKLRVNQDGFYYLYANICFRHHETSGSVPADYLQLMVYVVKTSIKIPSSHNLMKGGSTKNWSGNSEFHFYSINVGGFFKLRAGEEISVQVSNPSLLAPDQDATYFGAFKVQDID
modifications: left off: His6, N-terminal, cleaved | SUMO, N-terminal, cleaved
notes: as for B1
Q: For B8, which “number of osteoclasts (fig. 1f)” value (sRANKL protein 25 ng/mL) is on record?
A: Its value is 0.

Q: What about the “number of osteoclasts (fig. 1f)” value (sRANKL protein 50 ng/mL) of the same molecule?
A: The value was 0.

Q: And the “number of osteoclasts (fig. 1f)” value (sRANKL protein 100 ng/mL)?
A: Its value is 0.

Q: And the “number of osteoclasts (fig. 1f)” value (sRANKL protein 200 ng/mL)?
A: Its value is 0.

B9: Y242A: single-point mutated rat sRANKL (protein)
chain: KPEAQPFAHLTINAADIPSGSHKVSLSSWYHDRGWAKISNMTLSNGKLRVNQDGFYYLYANICFRHHETSGSVPADYLQLMVAVVKTSIKIPSSHNLMKGGSTKNWSGNSEFHFYSINVGGFFKLRAGEEISVQVSNPSLLDPDQDATYFGAFKVQDID
modifications: left off: His6, N-terminal, cleaved | SUMO, N-terminal, cleaved
notes: as for B1
Q: What does the source list for B9?
A: number of osteoclasts (fig. 1f) (sRANKL protein 50 ng/mL): 1 and 2; number of osteoclasts (fig. 1f) (sRANKL protein 100 ng/mL): 5 and 7; number of osteoclasts (fig. 1f) (sRANKL protein 200 ng/mL): 12 and 14 and 11

B10: D303A: single-point mutated rat sRANKL (protein)
chain: KPEAQPFAHLTINAADIPSGSHKVSLSSWYHDRGWAKISNMTLSNGKLRVNQDGFYYLYANICFRHHETSGSVPADYLQLMVYVVKTSIKIPSSHNLMKGGSTKNWSGNSEFHFYSINVGGFFKLRAGEEISVQVSNPSLLDPAQDATYFGAFKVQDID
modifications: left off: His6, N-terminal, cleaved | SUMO, N-terminal, cleaved
notes: as for B1
Q: Which “number of osteoclasts (fig. 1f)” value (sRANKL protein 25 ng/mL) does the source give for B10 here?
A: Its value is 0.

Q: What about the “number of osteoclasts (fig. 1f)” value (sRANKL protein 50 ng/mL) of the same molecule?
A: Its value is 0.

Q: What about the “number of osteoclasts (fig. 1f)” value (sRANKL protein 100 ng/mL) of the same molecule?
A: Its value is 0.

Q: And the “number of osteoclasts (fig. 1f)” value (sRANKL protein 200 ng/mL)?
A: The value was 0.
